Measured values as given in US20230190925A1 (CENTRE NATIONAL DE LA RECHERCHE SCIENTIFIQUE CNRS, published 2023).

T1: empty phage T5 capsid, undecorated, produced from the mutant phage T5stAmN5-Δdec (UniProt Q6QGD8 160-458; Q6QGD5 11-403)
T1 chain 1: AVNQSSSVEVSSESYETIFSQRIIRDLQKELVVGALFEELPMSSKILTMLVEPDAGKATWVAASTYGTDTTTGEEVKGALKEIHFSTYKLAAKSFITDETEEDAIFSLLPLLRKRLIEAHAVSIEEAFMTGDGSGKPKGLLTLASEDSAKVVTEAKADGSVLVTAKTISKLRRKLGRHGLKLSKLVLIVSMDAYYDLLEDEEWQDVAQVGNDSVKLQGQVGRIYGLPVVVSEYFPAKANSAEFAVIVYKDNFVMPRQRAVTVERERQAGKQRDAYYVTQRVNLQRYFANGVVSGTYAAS
T1 chain 2: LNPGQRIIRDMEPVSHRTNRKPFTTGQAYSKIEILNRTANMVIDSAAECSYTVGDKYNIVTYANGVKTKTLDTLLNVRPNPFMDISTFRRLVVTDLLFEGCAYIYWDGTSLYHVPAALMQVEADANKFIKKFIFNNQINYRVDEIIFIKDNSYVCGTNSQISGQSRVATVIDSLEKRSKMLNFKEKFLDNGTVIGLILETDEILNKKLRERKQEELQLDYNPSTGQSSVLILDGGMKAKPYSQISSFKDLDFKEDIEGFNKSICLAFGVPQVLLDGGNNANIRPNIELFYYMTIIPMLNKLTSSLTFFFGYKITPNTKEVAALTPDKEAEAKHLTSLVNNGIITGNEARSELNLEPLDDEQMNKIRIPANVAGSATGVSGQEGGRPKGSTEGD

T2: recombinant phage T5 capsid produced from plasmid pETcapT5Δdec (assembled in the absence of pb10) (bacteriophage T5, UniProt Q6QGD8 160-458; Q6QGD5 11-403)
T2 construct: also called capsids produced from the plasmid pETcapT5Δdec; pETcapT5Δpb10 capsids
T2 sequence 1: T1 chain 1
T2 sequence 2: T1 chain 2

T3: empty phage T5 capsid, undecorated, produced from the mutant phage T5stAmN5-Δdec (bacteriophage T5, UniProt Q6QGD8 160-458; Q6QGD5 11-403)
T3 construct: devoid of DNA and of pb10, expanded form; also called empty capsids; pure empty capsids
T3 sequence 1: T1 chain 1
T3 sequence 2: T1 chain 2

B1: pb10N-Ter-OVAH6 (N-terminal domain of pb10 fused with ovalbumin, His-tagged) (other)
chain: MGIDYSGLRTIFGEKLPESHIFFATVAAHKYVPSYAFLRRELGLSSAHTNRKVWKKFVEAYGKAIPPAPPAPPMGSIGAASMEFCFDVFKELKVHHANENIFYCPIAIMSALAMVYLGAKDSTRTQINKVVRFDKLPGFGDSIEAQCGTSVNVHSSLRDILNQITKPNDVYSFSLASRLYAEERYPILPEYLQCVKELYRGGLEPINFQTAADQARELINSWVESQTNGIIRNVLQPSSVDSQTAMVLVNAIVFKGLWEKAFKDEDTQAMPFRVTEQESKPVQMMYQIGLFRVASMASEKMKILELPFASGTMSMLVLLPDEVSGLEQLESIINFEKLTEWTSSNVMEERKIKVYLPRMKMEEKYNLTSVLMAMGITDVFSSSANLSGISSAESLKISQAVHAAHAEINEAGREVVGSAEAGVDAASVSEEFRADHPFLFCIKHIATNAVLFFGRCVSP
B2: decoration protein pb10 of phage T5 (other)
chain: MGIDYSGLRTIFGEKLPESHIFFATVAAHKYVPSYAFLRRELGLSSAHTNRKVWKKFVEAYGKAIPPAPPAPPLTLSKDLTASMSVEEGAALTLSVTATGGTGPYTYAWTKDGSPIPDASGATYTKPTAAAEDAGSYKVTVTDSKQVSKDSTTCAVTVNPTVPGGLE
notes: Monomeric; also called native protein pb10; pb10 H6
B3: pb10-OVAH6 (whole protein pb10 fused with ovalbumin, His-tagged) (other)
chain: MGIDYSGLRTIFGEKLPESHIFFATVAAHKYVPSYAFLRRELGLSSAHTNRKVWKKFVEAYGKAIPPAPPAPPLTLSKDLTASMSVEEGAALTLSVTATGGTGPYTYAWTKDGSPIPDASGATYTKPTAAAEDAGSYKVTVTDSKQVSKDSTTCAVTVNPTVPGGMGSIGAASMEFCFDVFKELKVHHANENIFYCPIAIMSALAMVYLGAKDSTRTQINKVVRFDKLPGFGDSIEAQCGTSVNVHSSLRDILNQITKPNDVYSFSLASRLYAEERYPILPEYLQCVKELYRGGLEPINFQTAADQARELINSWVESQTNGIIRNVLQPSSVDSQTAMVLVNAIVFKGLWEKAFKDEDTQAMPFRVTEQESKPVQMMYQIGLFRVASMASEKMKILELPFASGTMSMLVLLPDEVSGLEQLESIINFEKLTEWTSSNVMEERKIKVYLPRMKMEEKYNLTSVLMAMGITDVFSSSANLSGISSAESLKISQAVHAAHAEINEAGREVVGSAEAGVDAASVSEEFRADHPFLFCIKHIATNAVLFFGRCVSP

Columns and labels:
[1] = target: T1, empty phage T5 capsid, undecorated, …; assay: SPR; 25 °C
[2] = target: T2, recombinant phage T5 capsid produced …; assay: native agarose gel retardation
[3] = target: T1, empty phage T5 capsid, undecorated, …; assay: SPR
[4] = target: T3, empty phage T5 capsid, undecorated, …; assay: native agarose gel retardation, [protein]/[binding sites on the capsid] = 1+/-0.1

Binder | Kd [1] [pM] | binding result [2] | Kd [3] [pM] | binding result [4]
B1 | 1.22 | – | – | –
B2 | 2.25 | binds | 1.11 | binds
B3 | 2.34 | – | – | –
